Experimental data from patent US20060223116A1 (published 2006).

Target: T1, murine ITK (endogenous, mouse thymocytes and CD4 T cells) (mouse, UniProt Q03526 1-625)
T1 construct: Endogenous protein of BALB/c mouse cells; also called endogenous ITK
T1 sequence: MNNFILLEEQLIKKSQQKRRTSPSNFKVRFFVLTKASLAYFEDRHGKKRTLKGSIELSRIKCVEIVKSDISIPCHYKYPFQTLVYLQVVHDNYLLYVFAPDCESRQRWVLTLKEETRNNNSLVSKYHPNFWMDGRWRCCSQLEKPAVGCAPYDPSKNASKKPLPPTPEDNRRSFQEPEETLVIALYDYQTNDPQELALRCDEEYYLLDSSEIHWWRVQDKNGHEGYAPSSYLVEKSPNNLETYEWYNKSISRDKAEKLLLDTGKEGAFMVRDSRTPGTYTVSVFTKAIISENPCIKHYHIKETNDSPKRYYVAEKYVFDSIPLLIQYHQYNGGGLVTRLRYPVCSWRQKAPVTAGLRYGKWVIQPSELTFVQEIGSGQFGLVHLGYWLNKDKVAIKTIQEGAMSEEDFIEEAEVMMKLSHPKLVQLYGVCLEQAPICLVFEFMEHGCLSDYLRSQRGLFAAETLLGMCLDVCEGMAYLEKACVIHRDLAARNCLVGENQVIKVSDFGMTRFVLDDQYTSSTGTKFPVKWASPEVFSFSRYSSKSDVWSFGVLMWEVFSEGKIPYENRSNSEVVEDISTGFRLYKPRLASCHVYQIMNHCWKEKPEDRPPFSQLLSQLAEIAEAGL
Assay: IP of T-bet (4B10) from mouse thymocyte nuclear extracts, anti-ITK (2F12) blot
Method: Most important, it was determined whether ITK interacted with T-bet under physiological conditions, by determining endogenous association in primary thymocytes. Single cell suspensions were obtained from thymi of BALB/c wt, T-bet^{-/-} and ITK−/− mice and nuclear extracts were prepared with NE-PER (Pierce, Rockford) according to the manufacturer's instructions. Two mg of nuclear extracts were incubated with anti-T-bet mAb, 4B10, in 150 mM NaCl. Immune complexes were resolved and probed with anti-ITK mAb (2F12), and sequentially with 4B10 after stripping. ITK expression was assayed in 30 μg of nuclear extracts. Initial attempts to perform coimmunoprecipitation experiments in naïve Thp cells 24 and 48 hours after TCR stimulation failed, likely secondary to both the low levels of endogenous T-bet expressed at this early time point and the competing processes of phosphorylation and dephosphorylation occurring in activated cells.

B1: murine T-bet (endogenous, mouse thymocytes and Thp cells) (other, UniProt Q9JKD8 1-530, looked up)
chain: MGIVEPGCGDMLTGTEPMPSDEGRGPGADQQHRFFYPEPGAQDPTDRRAGSSLGTPYSGGALVPAAPGRFLGSFAYPPRAQVAGFPGPGEFFPPPAGAEGYPPVDGYPAPDPRAGLYPGPREDYALPAGLEVSGKLRVALSNHLLWSKFNQHQTEMIITKQGRRMFPFLSFTVAGLEPTSHYRMFVDVVLVDQHHWRYQSGKWVQCGKAEGSMPGNRLYVHPDSPNTGAHWMRQEVSFGKLKLTNNKGASNNVTQMIVLQSLHKYQPRLHIVEVNDGEPEAACSASNTHVFTFQETQFIAVTAYQNAEITQLKIDNNPFAKGFRENFESMYASVDTSVPSPPGPNCQLLGGDPFSPLLSNQYPVPSRFYPDLPGQPKDMISQPYWLGTPREHSYEAEFRAVSMKPTLLPSAPGPTVPYYRGQDVLAPGAGWPVAPQYPPKMSPAGWFRPMRTLPMDPGLGSSEEQGSSPSLWPEVTSLQPEPSDSGLGEGDTKRRRISPYPSSGDSSSPAGAPSPFDKETEGQFYNYFPN
notes: mature; Endogenous protein in nuclear extracts; also called endogenous T-bet
binding result: binds
